Experimental data: paper PMC8277531 (Cell, 2021)

Biological target: T1, chicken Scap-3xFLAG (pEZT-cScap-3xFLAG WT) expressed in HEK 293T cells (Gallus gallus)
T1 chain: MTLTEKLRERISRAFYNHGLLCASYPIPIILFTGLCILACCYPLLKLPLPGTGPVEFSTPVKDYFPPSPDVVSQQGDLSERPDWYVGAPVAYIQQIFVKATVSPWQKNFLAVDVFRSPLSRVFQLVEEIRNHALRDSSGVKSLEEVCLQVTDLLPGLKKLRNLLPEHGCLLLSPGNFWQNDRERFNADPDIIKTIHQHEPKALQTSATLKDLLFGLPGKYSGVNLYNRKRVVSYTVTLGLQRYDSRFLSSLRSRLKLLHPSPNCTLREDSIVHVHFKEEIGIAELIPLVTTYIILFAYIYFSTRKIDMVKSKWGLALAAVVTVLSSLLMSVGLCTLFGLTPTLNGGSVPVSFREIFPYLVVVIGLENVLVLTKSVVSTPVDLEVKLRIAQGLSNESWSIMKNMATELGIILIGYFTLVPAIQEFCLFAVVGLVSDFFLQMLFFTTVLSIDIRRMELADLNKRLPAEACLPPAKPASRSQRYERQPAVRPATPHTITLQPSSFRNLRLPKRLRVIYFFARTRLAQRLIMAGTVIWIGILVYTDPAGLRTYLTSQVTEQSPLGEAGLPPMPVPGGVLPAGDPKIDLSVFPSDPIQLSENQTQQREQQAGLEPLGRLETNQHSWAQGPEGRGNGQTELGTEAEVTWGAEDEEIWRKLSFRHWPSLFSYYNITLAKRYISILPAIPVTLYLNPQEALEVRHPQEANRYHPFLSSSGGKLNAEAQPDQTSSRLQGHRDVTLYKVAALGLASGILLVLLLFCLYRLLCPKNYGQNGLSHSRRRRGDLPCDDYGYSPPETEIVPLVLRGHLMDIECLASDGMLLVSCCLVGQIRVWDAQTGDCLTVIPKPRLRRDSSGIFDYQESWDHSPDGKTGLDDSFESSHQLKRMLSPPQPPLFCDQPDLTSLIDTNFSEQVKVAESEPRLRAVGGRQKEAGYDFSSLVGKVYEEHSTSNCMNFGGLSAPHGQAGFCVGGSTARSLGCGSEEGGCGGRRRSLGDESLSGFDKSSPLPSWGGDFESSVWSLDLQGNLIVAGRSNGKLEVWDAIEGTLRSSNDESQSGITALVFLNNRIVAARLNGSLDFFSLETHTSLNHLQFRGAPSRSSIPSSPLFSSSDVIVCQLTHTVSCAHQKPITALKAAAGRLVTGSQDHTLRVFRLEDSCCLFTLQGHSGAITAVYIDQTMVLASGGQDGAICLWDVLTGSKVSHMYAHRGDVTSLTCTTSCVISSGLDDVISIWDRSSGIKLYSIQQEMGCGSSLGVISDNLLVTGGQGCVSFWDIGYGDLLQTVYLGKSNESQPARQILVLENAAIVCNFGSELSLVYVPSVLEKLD
Assay: pull-down

B1: Fab fragment derived from mouse monoclonal IgG 4G10 (Fab, V domains shown)
VH: EVQLQQSGAELVRPGASVKLSCTASGFKIKDDYIHWVKQRPEQGLEWIGRIDPANGHTRYAPKFQDKATITADTSSNTAYLQLSSLTSEDTAVYYCTRYNDYDAFYFDYWGQGTTLTVSS
VL: DIQMTQTTSSLSASLGDRVTISCRASQDIRNYLNWYQQKPDGTVKLLIYYTSRLHSGVPSRFSGSGSGTDYSLTISNLEQEDIATYFCQQTNTLPWTFGGGTKVEIK
B1: binds.
